According to patent publication US20160017022A1 (CORNELL UNIVERSITY, published 2016):

Target: Alexa 594 labeled His-tagged protoxin (Clostridium perfringens epsilon protoxin) (Clostridium perfringens, UniProt Q02307 33-328)
Experiment: fluorescent toxin staining, MAL loss-of-function mouse

B1: mouse MAL (endogenous, in wild-type mouse tissues; absent in MAL KO mice) (receptor)
chain: MAPAAASGGSTLPSGFSVFTTFPDLLFVCEFVFGGLVWILIASSLVPLPLAQGWVMFVSVFCFVATTSLMILYIIGTHGGETSWITLDAAYHCVAALFYLSASVLEALATISMFDGFTYKHYHENIAAVVFAYVVTLIYVVHAVFSLIRWKSS
notes: whole, on cells
- binding result: binds
